In the nanobody polyreactivity screen of Harvey et al. (2022):

Experiment: yeast display, Sf9 membrane polyspecificity reagent, FACS + sequencing; frameworks hold sequencing errors
Method in brief: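 Synthetic nanobody libraries on Saccharomyces cerevisiae BJ5465 were galactose-induced for 36–48 hours, stained 1 hour at 4 °C with 10% biotinylated, detergent-solubilized Sf9 membrane reagent and enriched on streptavidin microbeads. FACS then separated cells into low and high (top ~1%) gates by anti-HA (expression) and streptavidin (reagent binding) fluorescence. Genes were colony-PCR amplified, MiSeq 2 × 250 sequenced and CDR-length filtered. A clone's polyreactivity label is that of its gate of origin.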

Sequence	polyreactivity (PSR sort gate)
QVQLVESGGGLVQAGGSLRLSCAASGSTFARNAMGRNRQAPGKERELVARITWSGSGTFYADPVKGRFTISRDNAKNTVYLQMYCLKPQDTAVYYCASEGPSAGFDYWGQGTQVTVSS	high polyreactivity
QVQLQEIGGGLVQAGGSLRLRCAASRNISGSSDLGWYHQAPGKEREFVASITSGGTTYYADSVKGRFTISRDNAKKTVYLQMNSLKAEDTAVYYCAVGDPADAEFGYWGQGTQVTVSS	low polyreactivity
QVQLVESGGGLVQAGGSLRLSCAASGFIFSYYAMGWYRQAPGKERELVAAISGSGGSTYYADSVKGRFTISRDNAKNTVYLQMNSLKPEDTAVYYCAAVSSYSRVYYWGQGTQVTVSS	high polyreactivity
QVQLVESGGGLVQAGGSLRLSFAASGLIFDSNAMGWYRQAPGKERELVASTYYADSVKGRFTISRDNAKNTVYLQMNSLKPEDTAVYYCATTSVYKSVTYDYWGQGTQVTVSS	low polyreactivity
QVQLVESGGGLVQAGCSLRLSCAASGRTFGGYALGWYRQAPGKERELVAAISRGGNTYYADSVKGRFTISRDNAKNTVYLQMNSLKPEDTAVYYCNVARGNPVPPSEYWGQGTQVTVSS	low polyreactivity
QVQLVESGGGLVQAGGSLRLSCAASGFTFRRNGRGWYRPAPGKERELVAAIRGSDGSTYYADSVKGRFTISRDTAKNTVYLLMNSLKPADTAVYYCIVVGKGLYRKMGYWGQGTQVTVSS	high polyreactivity
QVQLVESGGGLVQAGGSLRLSCAASGSIFNRNVMGWYRQAPGKERELVAAITWSGASTYYADSVKGRFTISRDNAKNTVYLQMNSLKPEDTAVYYCAATQYYRGYDYWGQGTQVTVSS	high polyreactivity
QVQLVESGGGLVQAGCSLRLSCADSGLTFTFYAMGWYRQAPGKVRELVAAISTSGASTYYADSVKGRFTISRDNANNTVYLQMNSLKPEDTAVYYCAAEYSYSSYLWYDYWGQGTQVTVSS	high polyreactivity
QDQLVESGVGLVQAGGSHRLSCAASGSTFYRYAMRWYRQAHGKERELVATITTGGSSTYYADSVKGRFTISRDNAKNTVYLQMNSLKPEDTAVYYCAKVYTYSGVNLRRISTPYGYWGQGTQVTVSS	high polyreactivity
QVQLVESGGGLVQAGGSLRLSCAASGSTLSYYAMGWYRQAPGKERELVAAISSGGTTNYADSVKGRFTISRDNAKNTVYLQMNSLKPEDTAVYYCAAVRKSWWYSSEYYYWGQGTQVTVSS	low polyreactivity
QVQLVESGGGLVQAGGSLRLSCAASGRIFYRYAMGWYRQAPGKERELVAGITRGGSTYYADSVKGRFTISRDNAKNTVYLQMNSLKPEDTAVYYCNVRWSPAGTGLLDFWGQGSQVTVSS	high polyreactivity
QVQLVESGGGLVQAGGSLRLSCAASGRTFGYYAMGWYRQAPGKERELVAAISRSGSRTYYADSVKGRFTISRDNAKNTVYLQMNSLKPEDTAVYYCNKVKEFYVPTEYDYWGQGTQVTVSS	high polyreactivity
QVQLVESGGGLVQAGGSLRLSCAASGSIFDVNTMGSYRQAPGKETELGASITSSGSTYYADSVKGRFTISRDNAKNTVYLQMNSLKPEDTAVYYCAATPIGQHFTLDYWGQGTQVTVSS	low polyreactivity
QVQLVDSGGGLGQAVGILRLSCAASGNIFLYYAMGWYRQAPGKEREMVAAISWSGSSTYYADSVKGRFTISRYNAKNTVYLQMNSLKPEVTAVYYCNATTSSKDAFCFILVFGQGDYWGQGTQVSVSS	low polyreactivity
QVQLVESGGGLVQAGGSLRLSCAASGSTFADYAMGWYRQAPGKERELVAAITGDGGNTYYADSVKGRFTISRDTAKNTVYLQMTSLKPEDTAVYYCAAEHESGAYYYWGLGTQVTVSS	high polyreactivity
QVQLVESGGGLVQAGGSLRLSCAASGFTFVGNAMGWYRQAPGKERELVATITSGGNTKYADSVKGRFTISRDNAKNTVYLQMNSLKPEDTAVYYCAAAKYNYRRFNSWGQGTQVTVSS	low polyreactivity
QDQLVESGGGLVQAGGSLRLSCAASGRIFKVYAMGRYRQAPGKERELVAAITRNTGSTYYADSVKGRFTISRDNAKNTVYLQMNSLKPEDTSVFYCAVDVRSGRAYDYWGQGTQVTVSS	high polyreactivity
QVQVVESGGGLVQAGGSLRLSCAASGSTFVIYDMGWYRQAPGKERELVAVITIIGGSTYYADAVKGRFTISRDNAKNTVYLELNSLKPEDTAVYDCAVEVGYTDSPYSYDYWGQGTQVTVSS	low polyreactivity
QDQLVESGGGLVQAGGSLRLSCAASGRTIVLNPMGWYRQAHGKERELVAAISSGGSTNYADSVKGRFTISRDNAKNTVYLQMNSLNPEDTAVYYCAGQDVNLYSAYYYWGQGTQVTVSS	low polyreactivity
QVQLVESGGGLVQAGGSLRLSCAASGSIVDFYAMGWYRQSPGTERELVAAIDDIDDSTYYADSVKGRFTISRDNAKNTVYLQMNSLKPEDTAVYYCAAELRPGYRSSYGLIYDYWGQGTQVTVSS	low polyreactivity
QVQLVESGGGLVQAGGSLRLSCAASGRISYYAMGWYRQAPGKERELVAVISSRGGSTYYADSVKGRFTISRDNAKNTVYLQMNSLKPEDTAVYYCAADLYYDAWRLYVLGYATMDYWGQGTQVTVSS	high polyreactivity
QVQLVESGGGLVQAGGSLRLSCAASGSTFTSNAMGWYRQAPGKERELVASISGSGGRTDYADSVKGRFTISRDNAKNTVYLQMNSLKPEDTAVYYCNAESRNLYSTQFDYWGQGTQVTVSS	low polyreactivity

Sequence	polyreactivity (PSR sort gate)
QVQLVESGGGLVQAGGSLRLSCAASGSIVLIYAMGWYRQAPGKERELVAAITGRGGRTYYADSVKGRFTISRDNAKNTVYLQLNSLKPEDTAVYYCAADSVYTLGLKYDYWGQGTQVTVSS	high polyreactivity
QVQLVESGGGLVQAGGSLRLSCAASGSIFWLYAMGWYRQAPGKERELVAAIDSGDSTKYADSVKGRFTISRDNAKNTVYLQMNSLKPEDTAVYYCNVRLGDRFFRHDYWGQGTQVTVSS	low polyreactivity
QVQLVESGGGLVQAGGSLRLSCAASGLTSSGNAMGWYRQAPGKERELVAAISWKAGSTYYADSVKGRFTISRDNAKNTVYLQMNSLKPEDTGVYYCAATLWSKTGYDYWGQGTIVTVSS	low polyreactivity
QVQLVESGGGLVQAGGSHRLSCSASGRIFARNVMGWYRQAPGKERELVAAITYSGGRTYYADSVKGRFTISRDNAKNTVYLQMNSLKPEDTAVYYCNAKSFSPPGYRGFDYWGQGTQVTVSS	low polyreactivity
QVQLVESGGGLVQAGGSHRLSCAASGSTFLRYAMGWYRQAPGKERELVAAITASGGSTYYADSVKGRFTISRDNAKNTVYLQMNCLKAEDTAVYYCAADGRFIGKNSHDLWIYGYYYWGQGTQVTVSS	low polyreactivity
QDQLVESGGGLVQAGGSLRLSCAASGRTFYYYTMGWDRQAPGKERELVAAISRRGGRTYYADSVKRRFTISRDNAKNTVYLQMTSLKPEDTAVYYCAADRDHVVDFDYWGQGTQVTVSS	high polyreactivity
QVQLVESGGGLVQAGGSLRLSCAASGFTFVRYTMGWYRKAPGKERELVAAITASGDRTYYADSVKGRFTISRDNAKNTVYLQMNSLKPEDTAVYYCAKEYWGVTPTYYYWGQGTQVTVSS	high polyreactivity
QVQLEETGGRLVQAGARLRLSCDASGYIFFFYAMGWYRHAPGKERELDASITYRGGSTYYADSVKGRFTLSRDYAKNTVYLQINSLKPEDTAVYYCIVDGGGPLGPHGFPFDYWGQGTQVTVSS	low polyreactivity
QVQLVESGGGLVQAGGSLRLSCAASGRTFFENAMGWYRQAPGKEREFVAAISYNGGSTYYADSVKGRFTISRDNAKNTVYLQMNSLKTEDTAVYYCAADPNYGYDYWGQGTQVTVSS	low polyreactivity
QVQLVDSGGGLVQAGGSLRLSCAASVITFGYYAMGWYRQAPGKERELVAAISRSGGNTRYADSVKGRFTISRDNAKNTVYLQMNSLKTDDTAVYYCAKRTTYSDDYWGQGTQVTVSS	high polyreactivity
QVQLVESGGGLVQAGGSLRVSCAASGNTFGYFAMGWYRQAPGKERELVAAMSGSGGRTYYAASVKGRFTISRDNAKNTVDLQMNILKPEATAVYYCNAVYYHVVDFDYWGQGTQVTVSS	high polyreactivity
QVQLVESGGGLVQAGGSLRLSCPASGRTFYGYPMGWYRQAPGKERELVAAISRRGGSTNYADSVKGRFTISRDHAKNTVYLQMNSRKPEDTAVYSCNANYYRTHYDYWGQGTQVTVSS	high polyreactivity
QVQLVESGGGLVQAGGSLRLSCAASGFIFPWYTMGWYRQAPGKERELVAVINQSGGSTYYADSVKGRFTISRDNAKNTVYLQMNSLKPEDTAVYYCAAKSYRGSVKLRWSERGYWGQGTQVTVSS	high polyreactivity
QVQLVESGGGIVQAGGSLRLSCAASGNIFHKNAMGWYRQAPGKERELVASISCSGGSTYYADSVKGRFTISRDNAKNTVYLQMNSLKPEDTAVYYCATDAFGYPVNRYALNDYWGQGTQVTVSS	low polyreactivity
QVQLVESGGGLVQAGGSLRLSCAASGSTFSYNAMGWSRQAPGKERELVAAISSAISTNYADSVKGRFTISRDNAKNTVYLQLNSLKPDDTAVYYCNKVPDFVFLISYQLYYTKRLGYWGQGTQVNVSS	low polyreactivity
QVQLVESGGGLVQAGGSLRLSCAASGRTSKVYAMGWYRQAPGTERELVAAITRGNTYYADSVKGRFTISRDNAKNTVYLQMNSLKPEDTAVYYCAADYRYWLSYFKKYDYWGQGTQVTVSS	high polyreactivity
QVQLVESGGGLVQAGGSLRLSCAASGSIFINNAMGWYRQAPGKERELVAAISSSGTTYYADSVKGRFTISRDNAKNSVYLQMNSLKPEDTAVYYCNARYSLHSYYCFIYDSWGQGTKVTVSS	low polyreactivity
QVQLVESGGGLVQAGGSLRLSCAASGNILHYYTMGLYRQAPGKETELVARINYSTGSTYYADSVKGRFTISRDNAKNTVYLQMNSLKPEDTAVYYCAAEKERDEEYDYWGQGTQVTVSS	low polyreactivity
QVQLVESGGGLVQAGGSLRLSCADSGSIFAGNAMGWYRQAPGKERELVAAISRRGGSTYYADSVKGRFTISRDNAKNTVYLQMNSLKPEDTAVYYCNALLRYAYHAAYGYWGQGTQVTVSS	high polyreactivity
QVQLQESGGGLVQAGVSLRLSGAASGYISTFSSEMGWYRQAPVKERELVASIAPGCTTSYADSVKGRFTISRDNAKNTVYLQMNSLKPEDTAVYYCAVDYTVPASFGYWGQGTQVTVSS	high polyreactivity
QVQLVESGGGLVQAGGSLRLSCAASGSIFSYYDMGWYRQAPGKERELVAAITTGGSTNYADSVKGRFTISRDNAKNTVYLQMNSLKPEDTAVYYCNAGRWWSRGYGYWGQVTQVTVSS	high polyreactivity
